Laboratory results from the supplement of paper PMC9112550, “Optimization of the antimicrobial peptide Bac7 by deep mutational scanning” (BMC Biology, 2022).

Tested on: Escherichia coli TOP10
Experiment: shrunken log2 fold change of peptide-encoding DNA abundance (4.5 h post-induction vs induction); higher = less antimicrobial activity (less host growth inhibition)
Settings: time post-induction: 4.5 h; library: site-saturation at positions 5, 18, 19, 20
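Also: peptides expressed intracellularly from a pBAD plasmid library in pooled LB shake-flask culture, induced with 0.3% L-arabinose, DNA abundance read by NGS, three biological replicates, DESeq2 with apeglm shrinkage.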

Point of comparison: RRIRARPPRLPRPRPRPDTHPRP, “shrunken log2 fold change” value 0.0877. Against it:
- RRIRARPPRLPRPRPRPAAVPRP — higher, 0.8
- RRIRARPPRLPRPRPRPAAYPRP — higher, 0.412
- RRIRARPPRLPRPRPRPACVPRP — higher, 0.707
- RRIRARPPRLPRPRPRPAFWPRP — higher, 0.673
- RRIRARPPRLPRPRPRPAHFPRP — within 0.2 log units, 0.25
- RRIRARPPRLPRPRPRPAHHPRP — within 0.2 log units, 0.123
- RRIRARPPRLPRPRPRPAIDPRP — higher, 0.387
- RRIRARPPRLPRPRPRPAISPRP — higher, 0.594
- RRIRARPPRLPRPRPRPAKWPRP — within 0.2 log units, 0.273
- RRIRARPPRLPRPRPRPAKYPRP — lower, -0.156
- RRIRARPPRLPRPRPRPANQPRP — within 0.2 log units, 0.0465
- RRIRARPPRLPRPRPRPAPDPRP — higher, 0.93
- RRIRARPPRLPRPRPRPAPKPRP — higher, 1
- RRIRARPPRLPRPRPRPAPQPRP — higher, 0.932
- RRIRARPPRLPRPRPRPAQKPRP — within 0.2 log units, 0.0505
- RRIRARPPRLPRPRPRPAQRPRP — higher, 0.695
- RRIRARPPRLPRPRPRPATVPRP — within 0.2 log units, 0.214
- RRIRARPPRLPRPRPRPAVYPRP — within 0.2 log units, -0.079
- RRIRARPPRLPRPRPRPAWCPRP — higher, 1.28
- RRIRARPPRLPRPRPRPAWPPRP — higher, 0.582
- RRIRARPPRLPRPRPRPCADPRP — higher, 0.734
- RRIRARPPRLPRPRPRPCATPRP — higher, 1.06
- RRIRARPPRLPRPRPRPCAVPRP — higher, 0.365
- RRIRARPPRLPRPRPRPCCKPRP — lower, -0.12
- RRIRARPPRLPRPRPRPCCPPRP — lower, -0.273
- RRIRARPPRLPRPRPRPCDEPRP — within 0.2 log units, 0.085
- RRIRARPPRLPRPRPRPCEDPRP — higher, 0.693
- RRIRARPPRLPRPRPRPCERPRP — within 0.2 log units, -0.00198
- RRIRARPPRLPRPRPRPCFWPRP — higher, 0.364
- RRIRARPPRLPRPRPRPCHWPRP — lower, -0.153
- RRIRARPPRLPRPRPRPCKKPRP — within 0.2 log units, -0.0968
- RRIRARPPRLPRPRPRPCKLPRP — lower, -0.693
- RRIRARPPRLPRPRPRPCMGPRP — within 0.2 log units, 0.00996
- RRIRARPPRLPRPRPRPCNEPRP — within 0.2 log units, -0.0554
- RRIRARPPRLPRPRPRPCPRPRP — higher, 0.898
- RRIRARPPRLPRPRPRPCREPRP — within 0.2 log units, 0.0197
- RRIRARPPRLPRPRPRPCRYPRP — lower, -0.215
- RRIRARPPRLPRPRPRPCSWPRP — within 0.2 log units, 0.0664
- RRIRARPPRLPRPRPRPCTDPRP — within 0.2 log units, -0.0325
- RRIRARPPRLPRPRPRPCTGPRP — within 0.2 log units, -0.041
- RRIRARPPRLPRPRPRPCVIPRP — within 0.2 log units, 0.158
- RRIRARPPRLPRPRPRPCVKPRP — within 0.2 log units, 0.069
- RRIRARPPRLPRPRPRPCWQPRP — within 0.2 log units, 0.096
- RRIRARPPRLPRPRPRPDAWPRP — higher, 1.05
- RRIRARPPRLPRPRPRPDCGPRP — higher, 0.966
- RRIRARPPRLPRPRPRPDDCPRP — within 0.2 log units, 0.167
- RRIRARPPRLPRPRPRPDEAPRP — higher, 1.12
- RRIRARPPRLPRPRPRPDENPRP — higher, 1.2
- RRIRARPPRLPRPRPRPDEQPRP — within 0.2 log units, 0.0992
- RRIRARPPRLPRPRPRPDFNPRP — within 0.2 log units, 0.0591
- RRIRARPPRLPRPRPRPDGTPRP — higher, 0.288
- RRIRARPPRLPRPRPRPDHEPRP — within 0.2 log units, -0.0137
- RRIRARPPRLPRPRPRPDKDPRP — within 0.2 log units, 0.083
- RRIRARPPRLPRPRPRPDLDPRP — higher, 0.515
- RRIRARPPRLPRPRPRPDLGPRP — higher, 0.438
- RRIRARPPRLPRPRPRPDLLPRP — within 0.2 log units, 0.0805
- RRIRARPPRLPRPRPRPDMFPRP — within 0.2 log units, 0.0745
- RRIRARPPRLPRPRPRPDMLPRP — within 0.2 log units, -0.0619
- RRIRARPPRLPRPRPRPDNHPRP — within 0.2 log units, -0.0167
- RRIRARPPRLPRPRPRPDNQPRP — within 0.2 log units, 0.0635
- RRIRARPPRLPRPRPRPDPTPRP — higher, 0.447
- RRIRARPPRLPRPRPRPDQVPRP — higher, 0.359
- RRIRARPPRLPRPRPRPDQYPRP — within 0.2 log units, 0.151
- RRIRARPPRLPRPRPRPDREPRP — within 0.2 log units, -0.0167
- RRIRARPPRLPRPRPRPDSHPRP — lower, -0.779
- RRIRARPPRLPRPRPRPDSYPRP — within 0.2 log units, -0.111
- RRIRARPPRLPRPRPRPDTGPRP — within 0.2 log units, -0.0932
- RRIRARPPRLPRPRPRPDVDPRP — higher, 1.1
- RRIRARPPRLPRPRPRPDWWPRP — higher, 0.608
- RRIRARPPRLPRPRPRPDYFPRP — within 0.2 log units, -0.0428
- RRIRARPPRLPRPRPRPDYRPRP — within 0.2 log units, 0.0573
- RRIRARPPRLPRPRPRPECCPRP — higher, 0.996
- RRIRARPPRLPRPRPRPECTPRP — higher, 1.05
- RRIRARPPRLPRPRPRPEELPRP — higher, 0.499
- RRIRARPPRLPRPRPRPEFLPRP — higher, 0.465
- RRIRARPPRLPRPRPRPEFQPRP — higher, 0.666
- RRIRARPPRLPRPRPRPEGRPRP — higher, 2.11
- RRIRARPPRLPRPRPRPEGVPRP — higher, 1.1
- RRIRARPPRLPRPRPRPEHFPRP — within 0.2 log units, 0.126
- RRIRARPPRLPRPRPRPEHGPRP — within 0.2 log units, 0.0464
- RRIRARPPRLPRPRPRPEHSPRP — within 0.2 log units, 0.244
- RRIRARPPRLPRPRPRPEIGPRP — higher, 0.675
- RRIRARPPRLPRPRPRPEKWPRP — within 0.2 log units, 0.244
- RRIRARPPRLPRPRPRPELIPRP — higher, 0.606
- RRIRARPPRLPRPRPRPELMPRP — higher, 1.19
- RRIRARPPRLPRPRPRPEMAPRP — higher, 0.739
- RRIRARPPRLPRPRPRPEPCPRP — within 0.2 log units, 0.126
- RRIRARPPRLPRPRPRPEPYPRP — higher, 0.34
- RRIRARPPRLPRPRPRPESPPRP — within 0.2 log units, 0.145
- RRIRARPPRLPRPRPRPETSPRP — higher, 0.912
- RRIRARPPRLPRPRPRPEVKPRP — within 0.2 log units, 0.123
- RRIRARPPRLPRPRPRPEVTPRP — higher, 1.28
- RRIRARPPRLPRPRPRPEWGPRP — higher, 1.06
- RRIRARPPRLPRPRPRPEYGPRP — within 0.2 log units, 0.11
- RRIRARPPRLPRPRPRPFDKPRP — within 0.2 log units, -0.107
- RRIRARPPRLPRPRPRPFENPRP — within 0.2 log units, 0.166
- RRIRARPPRLPRPRPRPFEVPRP — higher, 0.455
- RRIRARPPRLPRPRPRPFFLPRP — within 0.2 log units, -0.0057
- RRIRARPPRLPRPRPRPFFRPRP — within 0.2 log units, 0.126
- RRIRARPPRLPRPRPRPFHEPRP — lower, -0.166
- RRIRARPPRLPRPRPRPFHFPRP — lower, -0.25
- RRIRARPPRLPRPRPRPFHPPRP — lower, -0.178
- RRIRARPPRLPRPRPRPFLCPRP — within 0.2 log units, 0.0599
- RRIRARPPRLPRPRPRPFPNPRP — lower, -0.221
- RRIRARPPRLPRPRPRPFPVPRP — within 0.2 log units, -0.0583
- RRIRARPPRLPRPRPRPFQWPRP — within 0.2 log units, -0.0629
- RRIRARPPRLPRPRPRPFSMPRP — lower, -0.215
- RRIRARPPRLPRPRPRPFSTPRP — lower, -0.572
